Laboratory results published in PMC4067515.

Biological target: recombinant Bet v 1 trimer (birch)
Test: SEC

stoichiometry N: 2
Substance: recombinant Bet v 1 trimer
